Starred links: 1 amine or outer side, 2 acyl side, 3 side chain; linkers in the order of their positions; H or OH if unused. Non-standard residues stand in square brackets, D forms with d. Groups on a side chain read outwards from the residue. No end group written: not given here. *: point of attachment. C20 diacid = O=C(O)CCCCCCCCCCCCCCCCCCC(=O)*; C18 diacid = O=C(O)CCCCCCCCCCCCCCCCC(=O)*; γGlu = O=C(O)[C@H](CCC(=O)[*:2])N[*:1]; εLys = N[C@@H](CCCCN[*:1])C(=O)[*:2]; Aib = CC(C)(N)C(=O)O
B1: Compound No. 16 (peptide)
peptide: Y[Aib]EGTFTSDYSIYLEK([εLys-εLys-γGlu-C20 diacid])QAAREFINWLLAGGPSSGAPPPS-OH
modifications: N-terminus assumed
SMILES: CC[C@H](C)[C@H](NC(=O)[C@H](Cc1ccccc1)NC(=O)[C@H](CCC(=O)O)NC(=O)[C@H](CCCNC(=N)N)NC(=O)[C@H](C)NC(=O)[C@H](C)NC(=O)[C@H](CCC(N)=O)NC(=O)[C@H](CCCCNC(=O)[C@@H](N)CCCCNC(=O)[C@@H](N)CCCCNC(=O)CC[C@H](NC(=O)CCCCCCCCCCCCCCCCCCC(=O)O)C(=O)O)NC(=O)[C@H](CCC(=O)O)NC(=O)[C@H](CC(C)C)NC(=O)[C@H](Cc1ccc(O)cc1)NC(=O)[C@@H](NC(=O)[C@H](CO)NC(=O)[C@H](Cc1ccc(O)cc1)NC(=O)[C@H](CC(=O)O)NC(=O)[C@H](CO)NC(=O)[C@@H](NC(=O)[C@H](Cc1ccccc1)NC(=O)[C@@H](NC(=O)CNC(=O)[C@H](CCC(=O)O)NC(=O)C(C)(C)NC(=O)[C@@H](N)Cc1ccc(O)cc1)[C@@H](C)O)[C@@H](C)O)[C@@H](C)CC)C(=O)N[C@@H](CC(N)=O)C(=O)N[C@@H](Cc1c[nH]c2ccccc12)C(=O)N[C@@H](CC(C)C)C(=O)N[C@@H](CC(C)C)C(=O)N[C@@H](C)C(=O)NCC(=O)NCC(=O)N1CCC[C@H]1C(=O)N[C@@H](CO)C(=O)N[C@@H](CO)C(=O)NCC(=O)N[C@@H](C)C(=O)N1CCC[C@H]1C(=O)N1CCC[C@H]1C(=O)N1CCC[C@H]1C(=O)N[C@@H](CO)C(=O)O
B2: Compound No. 38 (peptide)
peptide: Y[Aib]EGTFTSDYSIYLEEK([εLys-εLys-γGlu-C18 diacid])AAREFINWLLAGGPSSGAPPPS-OH
modifications: N-terminus assumed
SMILES: CC[C@H](C)[C@H](NC(=O)[C@H](Cc1ccccc1)NC(=O)[C@H](CCC(=O)O)NC(=O)[C@H](CCCNC(=N)N)NC(=O)[C@H](C)NC(=O)[C@H](C)NC(=O)[C@H](CCCCNC(=O)[C@@H](N)CCCCNC(=O)[C@@H](N)CCCCNC(=O)CC[C@H](NC(=O)CCCCCCCCCCCCCCCCC(=O)O)C(=O)O)NC(=O)[C@H](CCC(=O)O)NC(=O)[C@H](CCC(=O)O)NC(=O)[C@H](CC(C)C)NC(=O)[C@H](Cc1ccc(O)cc1)NC(=O)[C@@H](NC(=O)[C@H](CO)NC(=O)[C@H](Cc1ccc(O)cc1)NC(=O)[C@H](CC(=O)O)NC(=O)[C@H](CO)NC(=O)[C@@H](NC(=O)[C@H](Cc1ccccc1)NC(=O)[C@@H](NC(=O)CNC(=O)[C@H](CCC(=O)O)NC(=O)C(C)(C)NC(=O)[C@@H](N)Cc1ccc(O)cc1)[C@@H](C)O)[C@@H](C)O)[C@@H](C)CC)C(=O)N[C@@H](CC(N)=O)C(=O)N[C@@H](Cc1c[nH]c2ccccc12)C(=O)N[C@@H](CC(C)C)C(=O)N[C@@H](CC(C)C)C(=O)N[C@@H](C)C(=O)NCC(=O)NCC(=O)N1CCC[C@H]1C(=O)N[C@@H](CO)C(=O)N[C@@H](CO)C(=O)NCC(=O)N[C@@H](C)C(=O)N1CCC[C@H]1C(=O)N1CCC[C@H]1C(=O)N1CCC[C@H]1C(=O)N[C@@H](CO)C(=O)O
B3: Compound No. 17 (peptide)
peptide: YAEGTFTSDYSIYLEK([εLys-εLys-γGlu-C18 diacid])QAAREFINWLLAGGPSSGAPPPS-OH
modifications: N-terminus assumed
SMILES: CC[C@H](C)[C@H](NC(=O)[C@H](Cc1ccccc1)NC(=O)[C@H](CCC(=O)O)NC(=O)[C@H](CCCNC(=N)N)NC(=O)[C@H](C)NC(=O)[C@H](C)NC(=O)[C@H](CCC(N)=O)NC(=O)[C@H](CCCCNC(=O)[C@@H](N)CCCCNC(=O)[C@@H](N)CCCCNC(=O)CC[C@H](NC(=O)CCCCCCCCCCCCCCCCC(=O)O)C(=O)O)NC(=O)[C@H](CCC(=O)O)NC(=O)[C@H](CC(C)C)NC(=O)[C@H](Cc1ccc(O)cc1)NC(=O)[C@@H](NC(=O)[C@H](CO)NC(=O)[C@H](Cc1ccc(O)cc1)NC(=O)[C@H](CC(=O)O)NC(=O)[C@H](CO)NC(=O)[C@@H](NC(=O)[C@H](Cc1ccccc1)NC(=O)[C@@H](NC(=O)CNC(=O)[C@H](CCC(=O)O)NC(=O)[C@H](C)NC(=O)[C@@H](N)Cc1ccc(O)cc1)[C@@H](C)O)[C@@H](C)O)[C@@H](C)CC)C(=O)N[C@@H](CC(N)=O)C(=O)N[C@@H](Cc1c[nH]c2ccccc12)C(=O)N[C@@H](CC(C)C)C(=O)N[C@@H](CC(C)C)C(=O)N[C@@H](C)C(=O)NCC(=O)NCC(=O)N1CCC[C@H]1C(=O)N[C@@H](CO)C(=O)N[C@@H](CO)C(=O)NCC(=O)N[C@@H](C)C(=O)N1CCC[C@H]1C(=O)N1CCC[C@H]1C(=O)N1CCC[C@H]1C(=O)N[C@@H](CO)C(=O)O
B4: Compound No. 15 (peptide)
peptide: Y[Aib]EGTFTSDYSILLEK([εLys-εLys-γGlu-C18 diacid])QAAREFINWLLAGGPSSGAPPPS-OH
modifications: N-terminus assumed
SMILES: CC[C@H](C)[C@H](NC(=O)[C@H](Cc1ccccc1)NC(=O)[C@H](CCC(=O)O)NC(=O)[C@H](CCCNC(=N)N)NC(=O)[C@H](C)NC(=O)[C@H](C)NC(=O)[C@H](CCC(N)=O)NC(=O)[C@H](CCCCNC(=O)[C@@H](N)CCCCNC(=O)[C@@H](N)CCCCNC(=O)CC[C@H](NC(=O)CCCCCCCCCCCCCCCCC(=O)O)C(=O)O)NC(=O)[C@H](CCC(=O)O)NC(=O)[C@H](CC(C)C)NC(=O)[C@H](CC(C)C)NC(=O)[C@@H](NC(=O)[C@H](CO)NC(=O)[C@H](Cc1ccc(O)cc1)NC(=O)[C@H](CC(=O)O)NC(=O)[C@H](CO)NC(=O)[C@@H](NC(=O)[C@H](Cc1ccccc1)NC(=O)[C@@H](NC(=O)CNC(=O)[C@H](CCC(=O)O)NC(=O)C(C)(C)NC(=O)[C@@H](N)Cc1ccc(O)cc1)[C@@H](C)O)[C@@H](C)O)[C@@H](C)CC)C(=O)N[C@@H](CC(N)=O)C(=O)N[C@@H](Cc1c[nH]c2ccccc12)C(=O)N[C@@H](CC(C)C)C(=O)N[C@@H](CC(C)C)C(=O)N[C@@H](C)C(=O)NCC(=O)NCC(=O)N1CCC[C@H]1C(=O)N[C@@H](CO)C(=O)N[C@@H](CO)C(=O)NCC(=O)N[C@@H](C)C(=O)N1CCC[C@H]1C(=O)N1CCC[C@H]1C(=O)N1CCC[C@H]1C(=O)N[C@@H](CO)C(=O)O
B5: Compound No. 14 (peptide)
peptide: Y[Aib]EGTFTSDYSIALEK([εLys-εLys-γGlu-C18 diacid])QAAREFINWLLAGGPSSGAPPPS-OH
modifications: N-terminus assumed
SMILES: CC[C@H](C)[C@H](NC(=O)[C@H](CO)NC(=O)[C@H](Cc1ccc(O)cc1)NC(=O)[C@H](CC(=O)O)NC(=O)[C@H](CO)NC(=O)[C@@H](NC(=O)[C@H](Cc1ccccc1)NC(=O)[C@@H](NC(=O)CNC(=O)[C@H](CCC(=O)O)NC(=O)C(C)(C)NC(=O)[C@@H](N)Cc1ccc(O)cc1)[C@@H](C)O)[C@@H](C)O)C(=O)N[C@@H](C)C(=O)N[C@@H](CC(C)C)C(=O)N[C@@H](CCC(=O)O)C(=O)N[C@@H](CCCCNC(=O)[C@@H](N)CCCCNC(=O)[C@@H](N)CCCCNC(=O)CC[C@H](NC(=O)CCCCCCCCCCCCCCCCC(=O)O)C(=O)O)C(=O)N[C@@H](CCC(N)=O)C(=O)N[C@@H](C)C(=O)N[C@@H](C)C(=O)N[C@@H](CCCNC(=N)N)C(=O)N[C@@H](CCC(=O)O)C(=O)N[C@@H](Cc1ccccc1)C(=O)N[C@H](C(=O)N[C@@H](CC(N)=O)C(=O)N[C@@H](Cc1c[nH]c2ccccc12)C(=O)N[C@@H](CC(C)C)C(=O)N[C@@H](CC(C)C)C(=O)N[C@@H](C)C(=O)NCC(=O)NCC(=O)N1CCC[C@H]1C(=O)N[C@@H](CO)C(=O)N[C@@H](CO)C(=O)NCC(=O)N[C@@H](C)C(=O)N1CCC[C@H]1C(=O)N1CCC[C@H]1C(=O)N1CCC[C@H]1C(=O)N[C@@H](CO)C(=O)O)[C@@H](C)CC

Legend:
human GLP-1 receptor = human GLP-1 receptor (human, UniProt P43220 24-463); assay: cell-based or functional assay
human GIP receptor = molecular target: T1, human GIP receptor (human, UniProt P48546 22-466); assay: cell-based or functional assay
T1 sequence (looked up): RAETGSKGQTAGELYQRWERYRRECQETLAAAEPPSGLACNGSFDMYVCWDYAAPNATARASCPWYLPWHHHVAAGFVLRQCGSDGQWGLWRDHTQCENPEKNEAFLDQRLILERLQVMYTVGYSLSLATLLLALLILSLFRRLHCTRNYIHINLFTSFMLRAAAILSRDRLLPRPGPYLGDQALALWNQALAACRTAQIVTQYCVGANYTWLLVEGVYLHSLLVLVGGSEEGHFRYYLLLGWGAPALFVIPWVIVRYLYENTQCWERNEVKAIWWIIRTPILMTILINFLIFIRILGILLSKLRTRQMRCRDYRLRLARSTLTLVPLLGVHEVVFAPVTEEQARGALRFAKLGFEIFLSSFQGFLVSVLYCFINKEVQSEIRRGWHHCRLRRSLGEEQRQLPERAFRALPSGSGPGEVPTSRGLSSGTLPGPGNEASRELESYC

| Binder | hGLP-1R, CRE Luc 0% HSA EC50 (pM) (human GLP-1 receptor) | hGLP-1R, CRE Luc 1% HSA EC50 (pM) (human GLP-1 receptor) | hGIPR, CRE Luc 0% HSA EC50 (pM) (human GIP receptor) | hGIPR, CRE Luc 1% HSA EC50 (pM) (human GIP receptor) |
| --- | --- | --- | --- | --- |
| B1 | 3.1 | 321 | 13.4 | 804 |
| B2 | 3.1 | 259 | 12.4 | 815 |
| B3 | 5.2 | 257 | 34.9 | 1320 |
| B4 | 5 | 130 | 7.1 | 138 |
| B5 | 5.4 | 306 | 11.6 | 580 |

From patent publication US20230272029A1, “CO-AGONISTS AT GLP-1 AND GIP RECEPTORS SUITABLE FOR ORAL DELIVERY” (Novo Nordisk A/S, priority 2020, published 2023)
